How the values were obtained:
ARR12 [1] = target: T1, ARR12 (Arabidopsis, UniProt P62598 1-596); assay: yeast two-hybrid
T1 construct: YFP^N or YFP^C fusion of the full-length cDNA in BiFC; also called AtARR12; type-B response regulator AtARR12
T1 sequence (looked up): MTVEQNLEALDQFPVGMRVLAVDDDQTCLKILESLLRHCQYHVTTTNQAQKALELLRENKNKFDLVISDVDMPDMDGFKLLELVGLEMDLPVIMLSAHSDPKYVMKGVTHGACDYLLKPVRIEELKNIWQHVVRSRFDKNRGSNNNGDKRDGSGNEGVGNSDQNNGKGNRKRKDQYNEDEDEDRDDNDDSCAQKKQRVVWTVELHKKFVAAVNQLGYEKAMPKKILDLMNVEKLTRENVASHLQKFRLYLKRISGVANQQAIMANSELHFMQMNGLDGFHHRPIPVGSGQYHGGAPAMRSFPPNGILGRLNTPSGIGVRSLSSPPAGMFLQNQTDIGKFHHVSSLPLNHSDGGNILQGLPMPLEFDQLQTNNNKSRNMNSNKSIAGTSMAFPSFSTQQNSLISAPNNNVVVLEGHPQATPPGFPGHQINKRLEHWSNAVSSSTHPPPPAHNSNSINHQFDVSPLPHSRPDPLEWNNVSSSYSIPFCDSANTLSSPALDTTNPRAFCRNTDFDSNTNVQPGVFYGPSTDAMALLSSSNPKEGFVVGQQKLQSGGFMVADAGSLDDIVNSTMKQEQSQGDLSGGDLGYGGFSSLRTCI

KISS ME DEADLY 1 (KMD1) [2] = target: T2, KISS ME DEADLY 1 (KMD1) (Arabidopsis, UniProt Q9M8L2 1-354); assay: BiFC with ARR fragments; the weaker of the two interactions
T2 construct: Full-length protein; also called At1g80440
T2 sequence (looked up): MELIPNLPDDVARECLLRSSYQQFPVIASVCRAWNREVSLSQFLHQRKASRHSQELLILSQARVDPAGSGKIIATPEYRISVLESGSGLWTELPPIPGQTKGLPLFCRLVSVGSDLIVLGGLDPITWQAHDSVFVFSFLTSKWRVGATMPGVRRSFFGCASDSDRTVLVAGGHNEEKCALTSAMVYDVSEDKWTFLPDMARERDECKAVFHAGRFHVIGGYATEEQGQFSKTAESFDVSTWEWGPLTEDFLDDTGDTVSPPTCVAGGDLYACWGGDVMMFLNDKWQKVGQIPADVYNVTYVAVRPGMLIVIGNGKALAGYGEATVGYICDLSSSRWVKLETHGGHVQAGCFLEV

KISS ME DEADLY 2 (KMD2) [3] = target: T3, KISS ME DEADLY 2 (KMD2) (Arabidopsis, UniProt Q9LMR5 1-359); assay: BiFC (YFP^N/YFP^C fusions) in Arabidopsis protoplasts
T3 construct: Full-length protein; LexA fusion in yeast two-hybrid, YFP^N or YFP^C fusion in BiFC; also called At1g15670
T3 sequence (looked up): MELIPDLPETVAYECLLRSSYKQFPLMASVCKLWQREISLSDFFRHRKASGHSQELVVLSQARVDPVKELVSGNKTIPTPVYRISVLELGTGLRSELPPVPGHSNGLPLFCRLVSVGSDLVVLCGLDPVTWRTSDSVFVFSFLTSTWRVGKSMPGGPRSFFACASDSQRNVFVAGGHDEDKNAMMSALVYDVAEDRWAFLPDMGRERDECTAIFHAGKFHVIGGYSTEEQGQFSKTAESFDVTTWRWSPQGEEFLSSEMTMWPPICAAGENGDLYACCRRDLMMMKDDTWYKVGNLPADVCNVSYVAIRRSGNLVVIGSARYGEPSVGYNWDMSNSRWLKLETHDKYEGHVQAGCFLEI
Protocol: (§1) Arabidopsis protoplasts were transfected as described (Kovtun, et al. (2000) Proc. Natl. Acad. Sci. USA 97(6):2940-2945) and incubated overnight at 22° C. under dim light (5 […]) and examined with an Axioplan2 fluorescent microscope (Carl Zeiss).
(§2) KMD proteins contain a conserved amino-terminal F-box motif. To determine if KMDs function as canonical F-box proteins, their interactions with known components of the Arabidopsis SCF complex were examined.

KISS ME DEADLY 4 (KMD4) [4] = target: T4, KISS ME DEADLY 4 (KMD4) (Arabidopsis, UniProt Q9M1Y1 1-418); assay: as above
T4 construct: Full-length protein; LexA fusion in yeast two-hybrid, YFP^N or YFP^C fusion in BiFC; also called At3g59940
T4 sequence (looked up): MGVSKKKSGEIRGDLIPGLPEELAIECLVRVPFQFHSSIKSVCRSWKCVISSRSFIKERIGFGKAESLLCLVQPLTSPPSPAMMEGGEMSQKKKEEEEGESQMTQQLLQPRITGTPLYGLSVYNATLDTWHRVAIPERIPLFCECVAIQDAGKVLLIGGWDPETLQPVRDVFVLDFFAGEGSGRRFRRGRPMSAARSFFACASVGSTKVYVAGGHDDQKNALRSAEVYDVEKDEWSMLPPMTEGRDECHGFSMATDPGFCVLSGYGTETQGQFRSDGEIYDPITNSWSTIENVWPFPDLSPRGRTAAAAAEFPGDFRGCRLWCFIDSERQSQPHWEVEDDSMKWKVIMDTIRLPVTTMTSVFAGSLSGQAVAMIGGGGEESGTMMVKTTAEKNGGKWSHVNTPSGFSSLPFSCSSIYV
Protocol: as §1, §2

KISS ME DEADLY 3 (KMD3) [5] = target: T5, KISS ME DEADLY 3 (KMD3) (Arabidopsis, UniProt O80582 1-409); assay: as above
T5 construct: Full-length protein; LexA fusion in yeast two-hybrid, YFP^N or YFP^C fusion in BiFC; also called At2g44130
T5 sequence (looked up): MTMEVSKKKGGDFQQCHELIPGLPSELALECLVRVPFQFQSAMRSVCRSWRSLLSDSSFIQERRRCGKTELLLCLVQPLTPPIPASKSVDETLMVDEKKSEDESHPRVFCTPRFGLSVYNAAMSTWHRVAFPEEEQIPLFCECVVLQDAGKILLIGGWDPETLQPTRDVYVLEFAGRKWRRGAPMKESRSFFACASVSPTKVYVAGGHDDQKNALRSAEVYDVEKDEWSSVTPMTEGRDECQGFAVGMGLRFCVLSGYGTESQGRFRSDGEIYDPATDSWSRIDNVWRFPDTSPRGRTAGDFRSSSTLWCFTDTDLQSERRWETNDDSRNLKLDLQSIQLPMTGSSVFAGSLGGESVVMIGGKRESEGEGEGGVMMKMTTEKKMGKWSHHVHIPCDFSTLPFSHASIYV
Protocol: as §1, §2

KISS ME DEADLY 1 (KMD1) [6] = target: T2, KISS ME DEADLY 1 (KMD1); assay: as above
Protocol: as §1, §2

KISS ME DEADLY 2 (KMD2) [7] = target: T3, KISS ME DEADLY 2 (KMD2); assay: yeast two-hybrid (LexA-KMD bait, X-gal)
Text: (§3) The DUPLEX-A™ system (OriGene Technologies) was used for yeast two-hybrid analysis of interactions. KMD cDNAs were cloned into the pGilda bait vector, which produces an in-frame fusion with the LexA DNA-binding domain. Type-B ARR coding sequences were cloned into the pJG4-5 prey vector, which produces a B42 activation domain. The yeast strain EGY48 (MATa, trp1, his3, ura3, leu2::6 LexAop-LEU2) that contains the lacZ reporter plasmid pSH18-34 was transformed with the appropriate “bait” and “prey” plasmids. Interactions were tested on 5-bromo-4-chloro-3-indolyl-p-D-galactopyranoside (X-gal) medium (Ryu, et al. (2005) Cell 120(3): 395-406).
(§4) The KMD proteins also interacted with ARR20 (type-B ARR subfamily-3), but not with ARR19 (subfamily-2) and ARR21 (subfamily-3). […] All four KMD proteins interacted with both ARR1 and ARR12 in a BiFC assay. Strong fluorescence was detected in the nuclei of cells, consistent with the subcellular localization of the type-B ARRs (Hwang & Sheen J (2001) Nature 413(6854):383-389; Mason, et al. (2004) Plant Physiol. 135(2):927-937).

KISS ME DEADLY 4 (KMD4) [8] = target: T4, KISS ME DEADLY 4 (KMD4); assay: yeast two-hybrid (LexA-KMD bait, X-gal)
Text: as §3, §4

KISS ME DEADLY 3 (KMD3) [9] = target: T5, KISS ME DEADLY 3 (KMD3); assay: yeast two-hybrid (LexA-KMD bait, X-gal)
Text: as §3, §4

KISS ME DEADLY 1 (KMD1) [10] = target: T2, KISS ME DEADLY 1 (KMD1); assay: yeast two-hybrid (LexA-KMD bait, X-gal)
Text: as §3, §4

KISS ME DEADLY 4 (KMD4) [11] = target: T4, KISS ME DEADLY 4 (KMD4); assay: yeast two-hybrid (LexA-KMD bait, B42-ARR prey, X-gal)
Text: as §3, §4

KISS ME DEADLY 3 (KMD3) [12] = target: T5, KISS ME DEADLY 3 (KMD3); assay: as above
Text: as §3, §4

ARR12 [13] = target: T1, ARR12; assay: yeast two-hybrid, positive control

B1: OsKMD2 (other)
chain: MGYNELIPGLPEEVARECLIRVGFDQLPAVRRISRQWKAEVESPAYNRLRKAEGLARPALALVQARRELAEAGPAADKQSSAGGVPGNSYRMVLLDPAEGRWTPLPEVGGASGSLPLFCQVAAVDGGVEGRKRLVVVGGWDPETWAPTDSVLVYDFLTGAWRRGAAMPGPRRSFFACAAVGGKVFVAGGHDEEKNALRSALAYDPDADAWAALPDMAEERDEPRGLCVDGKFLVVGGYPTPAQGRFVGSAEWFDPATSTWSAVQEGFVDDGACPRTCSAAPEAGDRMYMLRDGHLVARHGAISSAPAAWRPVAPVPEDARTAAAVSVIPDGRVVVIGSDCHGGDQTVYTLREEAGKPASWARAPAPPEFSGHVQAACLLEI
notes: Tested in yeast two-hybrid; The fusion partner (LexA bait as for the Arabidopsis KMDs) is not restated for OsKMD2; also called rice KMD2; Os06g39370
B1: binds (ARR12 [1]).

B2: ARR12 (1-134) (other, Arabidopsis, UniProt P62598 1-134, looked up)
chain: MTVEQNLEALDQFPVGMRVLAVDDDQTCLKILESLLRHCQYHVTTTNQAQKALELLRENKNKFDLVISDVDMPDMDGFKLLELVGLEMDLPVIMLSAHSDPKYVMKGVTHGACDYLLKPVRIEELKNIWQHVVR
notes: range 1-134; Fused to a YFP fragment for BiFC; also called receiver domain of ARR12
B2: binds (KISS ME DEADLY 1 (KMD1) [2]).

B3: ASK1, an Arabidopsis Skp1 protein of the SCF complex (other, UniProt Q39255 1-160, looked up)
chain: MSAKKIVLKSSDGESFEVEEAVALESQTIAHMVEDDCVDNGVPLPNVTSKILAKVIEYCKRHVEAAASKAEAVEGAATSDDDLKAWDADFMKIDQATLFELILAANYLNIKNLLDLTCQTVADMIKGKTPEEIRTTFNIKNDFTPEEEEEVRRENQWAFE
notes: Full-length cDNA fused to YFP^N or YFP^C for BiFC
B3: binds (KISS ME DEADLY 2 (KMD2) [3]); binds (KISS ME DEADLY 4 (KMD4) [4]); binds (KISS ME DEADLY 3 (KMD3) [5]). B3: binds (KISS ME DEADLY 1 (KMD1) [6]).

B4: ARR4 (type-A ARR) (other, Arabidopsis, UniProt O82798 1-259, looked up)
chain: MARDGGVSCLRRSEMMSVGGIGGIESAPLDLDEVHVLAVDDSLVDRIVIERLLRITSCKVTAVDSGWRALEFLGLDNEKASAEFDRLKVDLIITDYCMPGMTGYELLKKIKESSNFREVPVVIMSSENVLTRIDRCLEEGAQDFLLKPVKLADVKRLRSHLTKDVKLSNGNKRKLPEDSSSVNSSLPPPSPPLTISPESSPPLTVSTESSDSSPPLSPVEIFSTSPLSSPIDDEDDDVLTSSSEESPIRRQKMRSPGLD
notes: Prey in yeast two-hybrid
B4: no binding (KISS ME DEADLY 2 (KMD2) [7]); no binding (KISS ME DEADLY 4 (KMD4) [8]); no binding (KISS ME DEADLY 3 (KMD3) [9]). B4: no binding (KISS ME DEADLY 1 (KMD1) [10]).

B5: ARR7 (type-A ARR) (other, Arabidopsis, UniProt Q9ZWS7 1-206, looked up)
chain: MAVGEVMRMEIPAGGDLTVTTPELHVLAVDDSIVDRKVIERLLRISSCKVTTVESGTRALQYLGLDGGKGASNLKDLKVNLIVTDYSMPGLSGYDLLKKIKESSAFREVPVVIMSSENILPRIQECLKEGAEEFLLKPVKLADVKRIKQLIMRNEAEECKILSHSNKRKLQEDSDTSSSSHDDTSIKDSSCSKRMKSESENLFSLL
notes: Prey in yeast two-hybrid
B5: no binding (KISS ME DEADLY 2 (KMD2) [7]); no binding (KISS ME DEADLY 4 (KMD4) [8]); no binding (KISS ME DEADLY 3 (KMD3) [9]). B5: no binding (KISS ME DEADLY 1 (KMD1) [10]).

B6: ARR19 (subfamily-2) (other, Arabidopsis, UniProt Q9M9B9 1-407, looked up)
chain: MLVGKISGYEDNTRSLERETSEITSLLSQFPGNTNVLVVDTNFTTLLNMKQIMKQYAYQVSIETDAEKALAFLTSCKHEINIVIWDFHMPGIDGLQALKSITSKLDLPVVIMSDDNQTESVMKATFYGACDYVVKPVKEEVMANIWQHIVRKRLIFKPDVAPPKPRMTWSEVFQPVQSHLVPTDGLDRDHFDSITINGGNGIQNMEKKQGKKPRKPRMTWTEELHQKFLEAIEIIGGIEKANPKVLVECLQEMRIEGITRSNVASHLQKHRINLEENQIPQQTQGNGWATAYGTLAPSLQGSDNVNTTIPSYLMNGPATLNQIQQNQYQNGFLTMNNNQIITNPPPPLPYLDHHHQQQHQSSPQFNYLMNNEELLQASGLSATDLELTYPSLPYDPQEYLINGYNYN
B6: no binding (KISS ME DEADLY 4 (KMD4) [11]); no binding (KISS ME DEADLY 3 (KMD3) [12]).

B7: phosphotransfer protein AtAHP2 (other, Arabidopsis, UniProt Q9ZNV8 1-156, looked up)
chain: MDALIAQLQRQFRDYTISLYQQGFLDDQFTELKKLQDDGSPDFVSEVLSLFFEDCVKLISNMARALDTTGTVDFSQVGASVHQLKGSSSSVGAKRVKTLCVSFKECCEAKNYEGCVRCLQQVDIEYKALKTKLQDMFNLEKQIIQAGGIVPQVDIN
notes: Positive control in the yeast two-hybrid test with AtARR12; construct not described
B7: binds (ARR12 [13]).
